Source: publication PMC7440162 (Cell, 2020)

Assays:
Assay in all cases: SPR
PTPRS ECD-Fc = biological target: T1, PTPRS ECD-Fc (human, UniProt Q13332 30-1282)
T1 sequence: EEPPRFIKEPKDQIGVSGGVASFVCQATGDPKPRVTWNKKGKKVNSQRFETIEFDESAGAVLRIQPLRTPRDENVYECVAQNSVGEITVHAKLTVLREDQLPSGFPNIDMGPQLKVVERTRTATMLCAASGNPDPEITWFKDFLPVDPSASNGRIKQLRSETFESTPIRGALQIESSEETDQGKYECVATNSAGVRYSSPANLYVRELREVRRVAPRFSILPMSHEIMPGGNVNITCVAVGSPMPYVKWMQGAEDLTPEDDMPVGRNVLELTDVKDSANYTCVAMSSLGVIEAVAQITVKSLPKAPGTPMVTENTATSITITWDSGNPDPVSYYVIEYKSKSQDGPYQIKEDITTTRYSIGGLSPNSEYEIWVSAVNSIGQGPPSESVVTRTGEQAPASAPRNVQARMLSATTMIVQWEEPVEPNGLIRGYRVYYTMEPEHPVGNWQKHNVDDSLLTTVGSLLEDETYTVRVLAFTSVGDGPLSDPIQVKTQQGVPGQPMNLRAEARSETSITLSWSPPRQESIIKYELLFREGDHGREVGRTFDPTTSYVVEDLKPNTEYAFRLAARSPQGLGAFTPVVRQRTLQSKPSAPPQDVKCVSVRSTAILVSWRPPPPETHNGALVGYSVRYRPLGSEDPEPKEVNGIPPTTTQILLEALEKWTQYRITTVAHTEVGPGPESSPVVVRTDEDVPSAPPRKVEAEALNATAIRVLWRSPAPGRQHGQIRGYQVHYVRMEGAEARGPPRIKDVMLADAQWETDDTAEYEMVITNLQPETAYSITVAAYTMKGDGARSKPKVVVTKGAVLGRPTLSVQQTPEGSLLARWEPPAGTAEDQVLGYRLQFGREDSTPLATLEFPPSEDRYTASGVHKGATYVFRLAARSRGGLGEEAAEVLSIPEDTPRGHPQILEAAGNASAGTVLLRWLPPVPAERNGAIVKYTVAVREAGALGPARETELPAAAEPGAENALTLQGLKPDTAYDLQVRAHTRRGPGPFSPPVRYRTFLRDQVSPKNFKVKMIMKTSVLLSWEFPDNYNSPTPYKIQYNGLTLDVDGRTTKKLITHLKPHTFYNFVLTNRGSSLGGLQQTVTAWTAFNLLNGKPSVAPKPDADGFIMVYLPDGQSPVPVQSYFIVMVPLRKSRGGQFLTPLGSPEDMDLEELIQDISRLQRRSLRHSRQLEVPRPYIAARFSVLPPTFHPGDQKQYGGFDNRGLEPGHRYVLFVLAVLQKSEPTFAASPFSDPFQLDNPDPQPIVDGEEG

PTPRF ECD-Fc = biological target: T2, PTPRF ECD-Fc (human, UniProt P10586 30-1263)
T2 sequence: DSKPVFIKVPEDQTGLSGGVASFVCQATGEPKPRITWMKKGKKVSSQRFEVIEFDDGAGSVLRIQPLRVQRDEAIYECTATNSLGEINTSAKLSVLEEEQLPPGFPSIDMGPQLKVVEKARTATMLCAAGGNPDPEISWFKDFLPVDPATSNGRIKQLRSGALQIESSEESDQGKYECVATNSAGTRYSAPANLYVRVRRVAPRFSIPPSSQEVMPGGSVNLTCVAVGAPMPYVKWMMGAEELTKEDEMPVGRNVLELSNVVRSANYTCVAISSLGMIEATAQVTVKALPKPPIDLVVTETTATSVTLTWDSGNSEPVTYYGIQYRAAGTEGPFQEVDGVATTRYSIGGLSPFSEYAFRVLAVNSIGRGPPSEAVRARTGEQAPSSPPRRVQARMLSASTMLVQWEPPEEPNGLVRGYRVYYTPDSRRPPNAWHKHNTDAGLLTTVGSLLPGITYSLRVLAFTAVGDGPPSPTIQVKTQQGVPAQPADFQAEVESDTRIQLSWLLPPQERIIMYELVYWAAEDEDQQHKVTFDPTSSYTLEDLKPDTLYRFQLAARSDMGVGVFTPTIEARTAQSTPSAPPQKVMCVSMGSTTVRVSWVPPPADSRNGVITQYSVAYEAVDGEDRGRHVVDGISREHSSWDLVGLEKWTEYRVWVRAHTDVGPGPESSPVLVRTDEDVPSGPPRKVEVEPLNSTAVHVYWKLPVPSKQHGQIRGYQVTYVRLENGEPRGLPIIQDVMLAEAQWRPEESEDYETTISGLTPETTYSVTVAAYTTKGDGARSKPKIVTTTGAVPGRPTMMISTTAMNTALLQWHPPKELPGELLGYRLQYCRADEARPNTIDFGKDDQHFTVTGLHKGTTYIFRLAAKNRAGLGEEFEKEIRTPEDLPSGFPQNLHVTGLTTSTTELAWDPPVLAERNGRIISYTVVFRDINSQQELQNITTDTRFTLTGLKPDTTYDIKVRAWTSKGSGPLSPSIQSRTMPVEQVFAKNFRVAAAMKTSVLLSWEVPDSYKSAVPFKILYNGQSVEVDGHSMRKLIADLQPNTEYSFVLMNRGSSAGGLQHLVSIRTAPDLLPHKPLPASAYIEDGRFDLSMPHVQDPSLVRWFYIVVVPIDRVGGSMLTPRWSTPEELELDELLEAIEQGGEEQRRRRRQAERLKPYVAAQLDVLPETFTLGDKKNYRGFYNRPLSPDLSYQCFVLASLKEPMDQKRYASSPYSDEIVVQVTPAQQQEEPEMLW

PTPRD ECD-Fc = biological target: T3, PTPRD ECD-Fc (human, UniProt P23468 21-1265)
T3 sequence: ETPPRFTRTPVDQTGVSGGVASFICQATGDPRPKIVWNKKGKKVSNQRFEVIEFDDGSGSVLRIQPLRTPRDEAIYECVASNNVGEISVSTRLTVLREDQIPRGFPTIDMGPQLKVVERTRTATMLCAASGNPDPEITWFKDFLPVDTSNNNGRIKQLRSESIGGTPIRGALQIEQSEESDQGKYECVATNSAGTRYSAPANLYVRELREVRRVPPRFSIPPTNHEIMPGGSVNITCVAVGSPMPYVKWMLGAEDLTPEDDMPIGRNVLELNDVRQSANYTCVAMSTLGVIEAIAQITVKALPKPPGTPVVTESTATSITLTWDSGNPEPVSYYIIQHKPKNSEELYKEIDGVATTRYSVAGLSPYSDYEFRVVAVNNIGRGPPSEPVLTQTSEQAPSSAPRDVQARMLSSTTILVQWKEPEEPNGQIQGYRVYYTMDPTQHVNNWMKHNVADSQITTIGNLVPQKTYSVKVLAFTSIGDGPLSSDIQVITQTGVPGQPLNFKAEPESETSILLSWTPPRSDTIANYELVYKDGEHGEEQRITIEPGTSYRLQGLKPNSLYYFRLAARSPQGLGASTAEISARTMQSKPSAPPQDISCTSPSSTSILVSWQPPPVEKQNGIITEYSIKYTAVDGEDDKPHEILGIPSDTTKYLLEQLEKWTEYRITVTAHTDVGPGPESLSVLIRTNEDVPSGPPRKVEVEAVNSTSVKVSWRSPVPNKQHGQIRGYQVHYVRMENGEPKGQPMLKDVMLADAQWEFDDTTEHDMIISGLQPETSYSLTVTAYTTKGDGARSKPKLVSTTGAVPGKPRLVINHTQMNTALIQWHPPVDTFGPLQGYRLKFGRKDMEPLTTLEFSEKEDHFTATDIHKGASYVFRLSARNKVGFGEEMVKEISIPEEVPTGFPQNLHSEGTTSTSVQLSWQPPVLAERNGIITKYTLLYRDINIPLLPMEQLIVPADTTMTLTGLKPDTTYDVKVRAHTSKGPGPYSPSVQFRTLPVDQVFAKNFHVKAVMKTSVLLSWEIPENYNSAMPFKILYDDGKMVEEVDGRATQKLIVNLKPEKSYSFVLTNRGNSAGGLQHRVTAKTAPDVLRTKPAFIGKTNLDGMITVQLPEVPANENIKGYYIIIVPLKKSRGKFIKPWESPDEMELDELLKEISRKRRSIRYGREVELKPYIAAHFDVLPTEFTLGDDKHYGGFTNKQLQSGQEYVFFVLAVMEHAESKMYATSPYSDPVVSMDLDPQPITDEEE

LTF-Fc = LTF-Fc (human, UniProt P02788, biotin on the AviTag (as SPR ligand))
LTF-Fc, sequence (P02788 20-710): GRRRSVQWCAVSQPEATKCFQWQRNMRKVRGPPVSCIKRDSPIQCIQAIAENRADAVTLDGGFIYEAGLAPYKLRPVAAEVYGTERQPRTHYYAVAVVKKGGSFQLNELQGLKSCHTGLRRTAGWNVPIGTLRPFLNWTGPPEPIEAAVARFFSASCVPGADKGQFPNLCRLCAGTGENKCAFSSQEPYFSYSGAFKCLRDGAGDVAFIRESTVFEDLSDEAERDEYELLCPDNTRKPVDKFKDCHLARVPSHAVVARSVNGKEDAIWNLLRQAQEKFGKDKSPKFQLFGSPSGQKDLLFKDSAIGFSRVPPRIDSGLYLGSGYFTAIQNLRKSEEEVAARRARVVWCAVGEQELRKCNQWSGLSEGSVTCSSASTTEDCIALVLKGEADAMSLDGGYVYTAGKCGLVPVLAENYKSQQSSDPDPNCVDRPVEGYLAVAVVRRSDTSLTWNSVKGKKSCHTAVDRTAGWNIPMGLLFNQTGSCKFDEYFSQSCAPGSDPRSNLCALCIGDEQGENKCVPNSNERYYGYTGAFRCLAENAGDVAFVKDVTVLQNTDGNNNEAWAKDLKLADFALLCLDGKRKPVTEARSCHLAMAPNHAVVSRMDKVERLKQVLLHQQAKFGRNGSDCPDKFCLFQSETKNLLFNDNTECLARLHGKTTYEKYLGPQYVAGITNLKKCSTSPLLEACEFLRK

ICAM5 ECD-Fc = biological target: T4, ICAM5 ECD-Fc (human, UniProt Q9UMF0 32-835, biotin on the AviTag (as SPR ligand))
T4 sequence: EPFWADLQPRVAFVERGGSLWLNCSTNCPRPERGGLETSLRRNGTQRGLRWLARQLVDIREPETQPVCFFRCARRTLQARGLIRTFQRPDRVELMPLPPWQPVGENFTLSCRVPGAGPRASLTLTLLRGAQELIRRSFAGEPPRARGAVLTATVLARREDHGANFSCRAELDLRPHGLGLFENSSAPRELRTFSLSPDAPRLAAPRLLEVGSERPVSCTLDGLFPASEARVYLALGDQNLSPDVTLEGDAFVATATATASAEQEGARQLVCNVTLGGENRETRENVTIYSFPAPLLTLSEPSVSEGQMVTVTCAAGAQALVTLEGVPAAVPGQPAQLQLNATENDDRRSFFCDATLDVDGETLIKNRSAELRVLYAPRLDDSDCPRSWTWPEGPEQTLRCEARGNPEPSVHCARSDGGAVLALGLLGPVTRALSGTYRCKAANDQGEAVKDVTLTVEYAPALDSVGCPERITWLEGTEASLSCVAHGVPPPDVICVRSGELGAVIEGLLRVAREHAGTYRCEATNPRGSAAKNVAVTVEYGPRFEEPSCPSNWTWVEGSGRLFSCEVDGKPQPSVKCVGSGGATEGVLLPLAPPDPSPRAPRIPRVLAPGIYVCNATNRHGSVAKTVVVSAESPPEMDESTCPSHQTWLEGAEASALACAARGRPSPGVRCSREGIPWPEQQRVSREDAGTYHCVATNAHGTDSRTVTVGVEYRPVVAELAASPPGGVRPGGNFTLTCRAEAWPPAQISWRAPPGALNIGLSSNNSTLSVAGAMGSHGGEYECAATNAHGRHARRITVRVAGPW

B1: SALM3 ECD-Fc (Fc fusion)
chain: CPLPCVCQNLSESLSTLCAHRGLLFVPPNVDRRTVELRLADNFIQALGPPDFRNMTGLVDLTLSRNAITRIGARAFGDLESLRSLHLDGNRLVELGTGSLRGPVNLQHLILSGNQLGRIAPGAFDDFLESLEDLDLSYNNLRQVPWAGIGAMPALHTLNLDHNLIDALPPGAFAQLGQLSRLDLTSNRLATLAPDPLFSRGRDAEASPAPLVLSFSGNPLHCNCELLWLRRLARPDDLETCASPPGLAGRYFWAVPEGEFSCEPPLIARHTQRLWVLEGQRATLRCRALGDPAPTMHWVGPDDRLVGNSSRARAFPNGTLEIGVTGAGDAGGYTCIATNPAGEATARVELRVLALPHGGNSSAEGGRPGPSDIAASARTAAEGEGTLESEPAVQVTEVTATSGLVSWGPGRPADPVWMFQIQYNSSEDETLIYRIVPASSHHFLLKHLVPGADYDLCLLALSPAAGPSDLTATRLLGCAHFSTLPASPLCHALQAHVLGGTL
modifications: biotin on the AviTag (as SPR ligand)
B1: binds (PTPRS ECD-Fc); binds (PTPRF ECD-Fc); binds (PTPRD ECD-Fc).

B2: SALM5 ECD-Fc (Fc fusion)
chain: QICPKRCVCQILSPNLATLCAKKGLLFVPPNIDRRTVELRLADNFVTNIKRKDFANMTSLVDLTLSRNTISFITPHAFADLRNLRALHLNSNRLTKITNDMFSGLSNLHHLILNNNQLTLISSTAFDDVFALEELDLSYNNLETIPWDAVEKMVSLHTLSLDHNMIDNIPKGTFSHLHKMTRLDVTSNKLQKLPPDPLFQRAQVLATSGIISPSTFALSFGGNPLHCNCELLWLRRLSREDDLETCASPPLLTGRYFWSIPEEEFLCEPPLITRHTHEMRVLEGQRATLRCKARGDPEPAIHWISPEGKLISNATRSLVYDNGTLDILITTVKDTGAFTCIASNPAGEATQIVDLHIIKLPHLLNSTNHIHEPDPGSSDISTSTKSGSNTSSSNGDTKLSQDKIVVAEATSSTALLKFNFQRNIPGIRMFQIQYNGTYDDTLVYRMIPPTSKTFLVNNLAAGTMYDLCVLAIYDDGITSLTATRVVGCIQFTTEQDYVRCHFMQSQFLGGTM
modifications: biotin on the AviTag (as SPR ligand)
B2: binds (PTPRS ECD-Fc); binds (PTPRF ECD-Fc); binds (PTPRD ECD-Fc).

B3: human ISLR2 ECD-Fc (Fc fusion)
chain: SCPEPCACVDKYAHQFADCAYKELREVPEGLPANVTTLSLSANKITVLRRGAFADVTQVTSLWLAHNEVRTVEPGALAVLSQLKNLDLSHNFISSFPWSDLRNLSALQLLKMNHNRLGSLPRDALGALPDLRSLRINNNRLRTLAPGTFDALSALSHLQLYHNPFHCGCGLVWLQAWAASTRVSLPEPDSIACASPPALQGVPVYRLPALPCAPPSVHLSAEPPLEAPGTPLRAGLAFVLHCIADGHPTPRLQWQLQIPGGTVVLEPPVLSGEDDGVGAEEGEGEGDGDLLTQTQAQTPTPAPAWPAPPATPRFLALANGSLLVPLLSAKEAGVYTCRAHNELGANSTSIRVAVAATGPPKHAPGAGGEPDGQAPTSERKSTAKGRGNSVLPSKPEGKIKGQGLAKVSILGETETEPEEDTSEGEEAEDQILADPAEEQRCGNGDPSRYVSNHAFNQSAELKPHVFELGVIALDVAEREARVQLTPLAARWGPGPGGAGGAPRPGRRPLRLLYLCPAGGGAAVQWSRVEEGVNAYWFRGLRPGTNYSVCLALAGEACHVQVVFSTKKELPS
modifications: biotin on the AviTag (as SPR ligand)
B3: binds (LTF-Fc); binds (ICAM5 ECD-Fc).
